Experimental data reported in US20230250158A1.

How the values were obtained:
[1] = biological target: SARS-CoV-2 Spike S2-hFc (SARS-CoV-2), P0DTC2; experiment: Octet BLI; Fab as analyte over S2-hFc on AHC sensors; steady-state analysis; details: remark: other sources report otherwise
[2] = biological target: SARS-CoV-2 Spike S2-hFc (SARS-CoV-2), P0DTC2; experiment: Octet, Fab as analyte over S2-hFc on AHC sensor; details: remark: other sources report otherwise

B1: 2-A6 Fab (Fab, V domains shown)
VH: QVTLRESGPALVKPTQTLTLTCTFSGFSLNTRGMSVSWIRQPPGKALEWLALIDWEDDKFYRTSLMTRLTISKDIFKNQVVLTMTNVDPVDTGTYYCARTYSVGVKYFGMDVWGQGTTVTVSS
VL: SSELTQDPAVSVALGQTVRITCQGDSLRNYYASWYRQEPGQAPILLIYGGNYRPSGIPDRFSGSSSGNTASLTITGAQAEDEADYYCNSRDSSGNHVVFGGGTKLTVL
- Kd [1]: 0.913 µM
- Kd [2]: 0.9 µM
